Measured values as given in patent publication US20130071400A1, “LINGO binding molecules and Pharmaceutical Use Thereof” (NOVARTIS AG, priority 2006, published 2013).

B1: IgG4 4784: monoclonal human anti-LINGO-1 IgG4 antibody; VL SEQ ID NO: 4, VH SEQ ID NO: 5 (antibody, V domains shown)
VH: QVQLKESGPALVKPTQTLTLTCTFSGFSLSSSGVGVGWIRQPPGKALEWLAHIGSDDDKYYSTSLKTRLTISKDTSKNQVVLTMTNMDPVDTATYYCARNQQYGDGYPGYFDYWGQGTLVTVSS
VL: DIELTQPPSVSVAPGQTARISCSGDNIGNYYVYWYQQKPGQAPVLVIYEDTNRPSGIPERFSGSNSGNTATLTISGTQAEDEADYYCQSYDNLHEQVFGGGTKLTVLG
modifications: IgG4; 4784 VH; 4784 VL
B2: IgG4 4785: monoclonal human anti-LINGO-1 IgG4 antibody; VL SEQ ID NO: 6, VH SEQ ID NO: 7 (antibody, V domains shown)
VH: QVQLQQSGPGLVKPSQTLSLTCAISGDSVSDNSAAWSWIRQSPGRGLEWLGLIYLRSKWDNDYAVSVKSRITINPDTSKNQFSLQLNSVTPEDTAVYYCARTGRADEFDVWGQGTLVTVSS
VL: DIVLTQPPSVSGAPGQRVTISCSGSSSNIGNNYVSWYQQLPGTAPKLLISRNSKRPSGVPDRFSGSKSGTSASLAITGLQSEDEADYYCSTYDTFSIVFGGGTKLTVLG
modifications: IgG4; 4785 VH; 4785 VL

Tested on: binding of LINGO-1 to NgR
Sequence (as listed by the source): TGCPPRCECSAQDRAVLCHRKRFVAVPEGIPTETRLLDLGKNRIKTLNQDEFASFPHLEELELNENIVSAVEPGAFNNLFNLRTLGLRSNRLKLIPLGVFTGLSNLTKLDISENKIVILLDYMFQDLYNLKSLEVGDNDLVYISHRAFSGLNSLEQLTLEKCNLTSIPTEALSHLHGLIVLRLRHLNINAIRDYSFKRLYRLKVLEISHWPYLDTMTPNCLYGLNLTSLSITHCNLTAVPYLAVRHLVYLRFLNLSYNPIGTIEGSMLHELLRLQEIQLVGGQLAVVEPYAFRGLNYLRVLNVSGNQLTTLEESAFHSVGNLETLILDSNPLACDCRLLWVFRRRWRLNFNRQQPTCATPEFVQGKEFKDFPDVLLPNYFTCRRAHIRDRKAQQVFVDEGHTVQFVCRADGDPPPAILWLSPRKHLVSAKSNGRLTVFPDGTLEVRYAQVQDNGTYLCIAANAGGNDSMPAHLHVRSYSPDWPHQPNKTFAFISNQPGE
Assay: AP-LINGO-1 binding assay (AP-LINGO-1 binding to NgR:SH-SY5Y cells)
Parameters: species or system rat
Details: 2 μM Fab, 1 nM AP-LINGO-1; normalized to control Fab 3207; p<0.01 (FIG. 1)
Experimental: NgR:SH-SY5Y cells in suspension are incubated with either 1 nM AP or AP-LINGO-1 in the absence or presence of 2 μM of the indicated anti-LINGO-1 Fab or anti-hen lysozyme Fab 3207. Bound AP activity on the cells is measured as absorbance at 405 nm after a 30 min incubation with 1-Step™ PNPP. The specific binding of AP-LINGO-1 is calculated as the difference between the total amount of AP-LINGO-1 binding and the amount of binding with AP alone. The mean percentage inhibition of specific binding (n=3, ±STD) is calculated as the percentile difference between the amount of specific binding of AP-LINGO-1 in the presence of Fab 3207 and the presence of an anti-LINGO-1 Fab.
The PCR product is cleaved with XhoI and XbaI and inserted into the respective sites of the vector APtag-5-NHIS (SEQ ID NO: 26) to generate APtag-5-NHIS-solrLINGO-1. The predicted protein product is the majority of the rat LINGO-1 ectodomain fused at the N-terminus to residues 23-511 of human placental alkaline phosphatase via a 3 amino acid residue linker. […] AP activity of the concentrated supernatant is measured using 1-Step™ PNPP (Pierce) as change in absorbance at 405 nm over time and transformed to a concentration using the following equation (applies for a 96 well plate format with 200 μl PNPP/well): […]

| Molecule | inhibition of specific AP-LINGO-1 binding to NgR:SH-SY5Y cells |
| --- | --- |
| B1 | significantly inhibit |
| B2 | significantly inhibit |
